From the supplement of paper PMC9170038

Tested on: MS2 coat protein
Test: apparent KD of MS2 coat protein; designed switch direction (-1 OFF switch, 1 ON switch): -1; higher = weaker reporter binding
Summary of the method: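 The buffer was Tris-HCl pH 7.5 with KCl, MgCl2, BSA, DTT, tRNA and Tween-20. In it, SNAP-549-labelled MS2 coat protein was titrated in doubling steps from 0.7 or 1.5 nM to 3 µM over chip-bound RNA switches transcribed by stalled E. coli RNA polymerase on Illumina chips. Apparent KD is the per-design median over clusters of curve fits to normalised fluorescence.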

[1] = Eterna round: R95, input ligand: microRNA oligo, concentration not stated
[2] = Eterna round: R95, input ligand: FMN 200 uM
[3] = Eterna round: R95, input ligand: none
[4] = input ligand: microRNA oligo, concentration not stated

| Sequence | apparent KD of MS2 coat protein [1] [nM] | apparent KD of MS2 coat protein (input ligand: FMN 200 uM) [nM] | apparent KD of MS2 coat protein (input ligand: none) [nM] | also measured |
| --- | --- | --- | --- | --- |
| GCAUCCAUAGUGAGGAUAUACCUCUGGAUACAUAGGUAGAAGGCACAUGAGGAUCACCCAUGUUCUUAGGAUGC [Fiskers BMX 4 - 34] (puzzle: Brourd's mod of Exclusion 4) | 23.9 | – | – | – |
| GCAUGCUAUGUCAGGAUAUACCUCUGGAUACAUAGGUAGAAGGGACAUGAGGAUCACCCAUGUCCUCAUCAUGC [Fiskers BMX 4 - 25] (puzzle: Brourd's mod of Exclusion 4) | 13.5 | – | – | – |
| GCAUUUGAGCAGGAUAUAGCCUGAACAUAAUGGUUAGAAGGGCUCACAUGAGGAUCACCCAUGUGGUGUCCAAA [Inratete] (puzzle: Exclusion 6) | 15.3 | – | – | apparent KD of MS2 coat protein [2]: 76.4 nM; apparent KD of MS2 coat protein [3]: 15.6 nM |
| GCCAAGUCAGGAUAUACAUGAGGAUCACCCAUGUAGGACGCUAUUUUGAUCUUGGUAGGUAGAAGGGACAUGGG [Mainaso] (puzzle: Exclusion 3) | 21.8 | – | – | – |
| GCCAGAGCAGGAUAUCUAAUAUCUCACAUGAGGAUCACCCAUGUCUAGCGAAAGCUAGAGGGAGAAGGGCUCUGGC [Mat - Exclusion 5 - Eli mod - D93] (puzzle: Exclusion 5) | 29.4 | – | – | apparent KD of MS2 coat protein [2]: 28.1 nM; apparent KD of MS2 coat protein [3]: 41.6 nM |
| GCCAGAGCAGGAUAUCUAAUAUGUCACAUGAGGAUCACCCAUGUCCAGCGAAAGCUGGAGGGAGAAGGGCUCUGGC [Fiskers Ex 5 - 21] (puzzle: Exclusion 5) | 51.8 | – | – | – |
| GCCAGAGCAGGAUAUUCAAUAAUCCACAUGAGGAUCACCCAUGUCCAGCGAAAGCUGGAGGGAGAAGGGCUCUGGC [Fiskers Ex 5 - 7] (puzzle: Exclusion 5) | 73.4 | – | – | – |
| GCCAGAGCAGGAUAUUCAAUAAUUCACAUGAGGAUCACCCAUGUCCAGCGAAAGCUGGAGGGAGAAGGGCUCUGGC [Fiskers Ex 5 - 2] (puzzle: Exclusion 5) | 33.4 | – | – | apparent KD of MS2 coat protein [2]: 17.5 nM; apparent KD of MS2 coat protein [3]: 44.3 nM |
| GCCAGAGCAGGAUAUUCAAUAUCACACAUGAGGAUCACCCAUGUCUAUCGAAAGAUAGAGGGAGAAGGGCUCUGGC [Mat - Exclusion 5 - Eli mod - D94] (puzzle: Exclusion 5) | 55.2 | – | – | – |
| GCCCGGGCAGGAUAUACAAUGAGCUUGAGAAAUCGAGUUCGACAUGAGGAUCACCCAUGUAGAAGGGCCCGGGC [-37.4, -35.1 kcal, A 28% 1] (Eterna round: R97, puzzle: Exclusion 2) | – | 24.5 | 14.9 | – |
| GCCCGUGGGCAAGGAUAUCCUACGCUGUUCUGGUUCGUGUCUGUCACAUGAGGAUCACCCAUGUGGGAGAAGGUGCAUUAGGGU [Design 54] (Eterna round: R96, puzzle: Exclusion NG 2) | – | 16.7 | 16.8 | apparent KD of MS2 coat protein [4]: 12.3 nM |
| GCCGAAAAUGUGAGGAUAUACCUAUGGAUACAUAGGUAGAAGGCACAUGAGGAUCACCCAUGUCCAAUAACGGC [Eli bmx4 4.25] (Eterna round: R97, puzzle: Brourd's mod of Exclusion 4) | – | 528 | 223 | – |
| GCCGAAAGUGUGAGGAUAUACCUAUGGAAACAUAGGUAGAAGGCACAUGAGGAUCACCCAUGUGUUUCAACGGC [Mat - Exclusion 4 - Eli Mod - D20] (Eterna round: R97, puzzle: Brourd's mod of Exclusion 4) | – | 67 | 24.5 | – |
| GCCGAGUGAGGAUAUACAUGAGGAUCACCCAUGUAAACACGAAAGCAAGUGUCCCUCAGUAGAAGGCGCCAGGA [Xeanonis] (puzzle: Exclusion 3) | 13.9 | – | – | apparent KD of MS2 coat protein [2]: 18.2 nM; apparent KD of MS2 coat protein [3]: 14 nM |
| GCCGAUUAAGUCAGGAUAUACCUAUGGAUACAUAGGUAGAAGGGACAUGAGGAUCACCCAUGUUCCUCUACGGC [Fiskers BMX 4 - 16] (puzzle: Brourd's mod of Exclusion 4) | 13.6 | – | – | – |
| GCCGAUUAAGUGAGGAUAUACCUAUGGAUACAUAGGUAGAAGGCACAUGAGGAUCACCCAUGUUCCUUAACGGC [Fiskers BMX 4 - 7] (puzzle: Brourd's mod of Exclusion 4) | 10.5 | – | – | – |
| GCCGCUCACGAGGAUAUGGUGGAAAAGCCUUUGCUAGAAGGCGUGACAUGAGGAUCACCCAUGUAGGCACAUGA [Eternabot (L1) Solution 85] (Eterna round: R97, puzzle: Exclusion 6) | – | 24.9 | 30.4 | – |
| GCCUACAGAGGAUAUACAAAUGUAUGAAACCUGUUUAGACGACAUGAGGAUCACCCAUGUAGAAGGCUGUGGGC [Eternabot (L1) Solution 85] (Eterna round: R97, puzzle: Exclusion 2) | – | 285 | 37.5 | – |
| GCCUCACAUGAGGAUCACCCAUGUGAGGAUAUUGAGUUACCAGGCGAACAAGCGACUACGAGAAGGCACGUGGA [Eternabot (L2) Solution 85] (Eterna round: R97, puzzle: Exclusion 1) | – | 12 | 13.9 | – |
| GCCUGGGCAGGAUAUACAUGAGGAUCACCCAUGUCUGUUGACCGAACUCCGGAUAUAUGUAGAAGGGUCGCAGA [Eternabot (L1) Solution 100] (Eterna round: R97, puzzle: Exclusion 3) | – | 55.1 | 49.8 | – |
| GCGCAAACGCCAAAAGGCGAAACAACAUGAGGAUCACCCAUGUAGGAUAUCGAUUGCUUUGCAGUCGAGAAGGACGUAAUGCGC [JL ENG3 3.80 Mod 5] (Eterna round: R96, puzzle: Exclusion NG 3) | – | 12.7 | 22.1 | apparent KD of MS2 coat protein [4]: 14.9 nM |
| GCGCCAUCGUGAGAUGGCGUACCAACAUGAGGAUCACCCAUGUAGGAUAUCGAUUGCUUUGCAGUCGAGAAGGGCAUGAUAAGU [JL ENG3 3.76] (Eterna round: R96, puzzle: Exclusion NG 3) | – | – | – | apparent KD of MS2 coat protein [4]: 17.2 nM |
| GCGCCAUCGUGAGAUGGCGUAUAUACAUGAGGAUCACCCAUGUAGGAUAUCGAUUGCUUUGCAGUCGAGAAGGGCAUGUAAUUU [JL ENG3 3.93] (Eterna round: R96, puzzle: Exclusion NG 3) | – | – | – | apparent KD of MS2 coat protein [4]: 25.8 nM |
| GCGGAGAGAGAAGGAUAUUGAAAUGCUUCUACAUGAGGAUCACCCAUGUUCGGCAGACAUGGGACCAAGAAGGUCUAUGUCGCG [Eternabot solution 27] (Eterna round: R96, puzzle: Exclusion NG 2) | – | 70.2 | 55.4 | apparent KD of MS2 coat protein [4]: 40.4 nM |
| GCGGAGUCGAUCGUGAGAUCGGAGACAUGAGGAUCACCCAUGUAGGAUAUCGAUUGCUUUGCAGUCGAGAAGGGCGUGCUCCGC [JL denovo 18] (Eterna round: R96, puzzle: Exclusion NG 3) | – | 19.9 | 22.9 | apparent KD of MS2 coat protein [4]: 18.6 nM |
